Results on 8 molecules are retold here after patent publication US20200024330A1.

Bounds are passed on as bounds.

Holding throughout (test): cell-based or functional assay
Test [1] addresses HIV-1 CMU02 envelope glycoprotein (Env) on pseudovirus (HIV-1).
Test [2] addresses HIV-1 92TH021 envelope glycoprotein (Env) on pseudovirus (HIV-1).
Test [3] has as its target HIV-1 92UG005 envelope glycoprotein (Env) on pseudovirus (HIV-1).
For test [4], the target named is aMLV envelope protein on pseudovirus (negative control virus).
Test [5] concerns the target HIV-1 MGRM-D-018 envelope glycoprotein (Env) on pseudovirus (HIV-1).
Test [6] addresses HIV-1 MGRM-D-001 envelope glycoprotein (Env) on pseudovirus (HIV-1).
Test [7] deals with HIV-1 MGRM-AG-005 envelope glycoprotein (Env) on pseudovirus (HIV-1).
Test [8] deals with HIV-1 92UG024 envelope glycoprotein (Env) on pseudovirus (HIV-1).
The target in test [9] is HIV-1 Env of isolate ZM233 (HIV-1).
Test [10] deals with HIV-1 Env of isolate ZM249 (HIV-1).
The target in test [11] is HIV-1 Env of isolate TR0.11 (HIV-1).
For test [12], the target named is HIV-1 Env of isolate CAAN (HIV-1).
The target of test [13] is HIV-1 JR-CSF Env I309A (pseudovirus) (HIV-1 JR-CSF) (UniProt P20871).
For test [14], the target named is HIV-1 Env of isolate CAP45 (HIV-1).
Test [15] addresses HIV-1 Env of isolate DU422 (HIV-1).
In test [16] the target is MuLV envelope protein (control pseudovirus) (MuLV).
For test [17], the target named is HIV-1 JR-CSF Env Y318A (pseudovirus) (HIV-1 JR-CSF) (UniProt P20871).
Test [18] concerns the target HIV-1 Env of isolate ZM214 (HIV-1).
Test [19] deals with HIV-1 JR-FL Env E168K (pseudovirus) (HIV-1 JR-FL).
Test [20] deals with HIV-1 92RW020 Env (pseudovirus) (HIV-1 92RW020).
In test [21] the target is HIV-1 Env of isolate REJ04541 (HIV-1).
For test [22], the target named is HIV-1 JR-CSF Env, wild type (pseudovirus) (HIV-1 JR-CSF) (UniProt P20871).
For test [23], the target named is HIV-1 ADA Env (pseudovirus) (HIV-1 ADA).
For test [24], the target named is HIV-1 Env of isolate DU156 (HIV-1).
The target of test [25] is HIV-1 Env of isolate PVO.4 (HIV-1).
Test [26] addresses HIV-1 Env of isolate AC10 (HIV-1).
For test [27], the target named is HIV-1 Env of isolate THRO.18 (HIV-1).
Test [28] addresses HIV-1 Env of isolate Du172 (HIV-1).

B1: PGT-125 monoclonal antibody (antibody, V domains shown)
VH: QSQLQESGPRLVEASETLSLTCNVSGESTGACTYFWGWVRQAPGKGLEWIGSLSHCQSFWGSGWTFHNPSLKSRLTISLDTPKNQVFLKLTSLTAADTATYYCARFDGEVLVYNHWPKPAWVDLWGRGIPVTVSS
VL: QSALTQPPSASGSPGQSITISCNGTATNFVSWYQQFPDKAPKLIIFGVDKRPPGVPDRFSGSRSGTTASLTVSRLQTDDEAVYYCGSLVGNWDVIFGGGTTLTVL
Take B1: the IC50, pseudovirus neutralization is more than 10 µg/mL in test [1]; 0.0066 µg/mL in test [2]; more than 10 µg/mL in test [3]; more than 10 µg/mL in test [4]; 0.0382 µg/mL in test [5]; 2.31 µg/mL in test [6]. Also, the IC50, pseudovirus neutralization in [7] and in [8] was more than 10 µg/mL throughout.

B2: 1503_H05 (PG16) (TCN-119) (antibody, V domains shown)
VH: QEKLVESGGGVVQPGGSLRLSCLASGFTFHKYGMHWVRQAPGKGLEWVALISDDGMRKYHSDSMWGRVTISRDNSKNTLYLQFSSLKVEDTAMFFCAREAGGPIWHDDVKYYDFNDGYYNYHYMDVWGKGTIVTVSS
VL: QSALTQPASVSGSPGQTITISCNGTRSDVGGFDSVSWYQQSPGKAPKVMVFDVSHRPSGISNRFSGSKSGNTASLTISGLHIEDEGDYFCSSLTDRSHRIFGGGTKVTVLG
Turning to B2, the IC50, pseudovirus neutralization (TZM-bl) in test [9] was less than 0.01 µg/mL; in [10], less than 0.01 µg/mL; in test [11] it was 4.3 µg/mL; in [12] it was 13.5 µg/mL; in test [14], less than 0.01 µg/mL; in [15], 0.71 µg/mL. Also, the IC50, pseudovirus neutralization (TZM-bl) is more than 25 µg/mL in test [18]; 0.22 µg/mL in [21]; less than 0.01 µg/mL in test [24]; 11 µg/mL in [25]; less than 0.01 µg/mL in test [26]; 4.12 µg/mL in test [27]. This molecule also showed an IC50, pseudovirus neutralization (TZM-bl) in test [28] of less than 0.01 µg/mL. In addition, the IC50 (ug/ml), neutralization in [13] was more than 1 µg/mL; in test [17], more than 1 µg/mL; in [19], 0.002 µg/mL; in [20], 0.02 µg/mL; in test [22], 0.001 µg/mL; in test [23], 0.003 µg/mL. This molecule yielded an IC50, pseudovirus neutralization (TZM-bl), control virus in [16] of more than 25 µg/mL.

B3: 1456_A12 (PG16) (TCN-117) (antibody, V domains shown)
VH: HEQLVEAGGGVVQPGGSLRLSCLASGFTFHKYGMHWVRQAPGKGLEWVALISDDGMRKYHSDSMWGRVTISRDNSKNTLYLQFSSLRVEDTAMFFCAREAGGPIWHDDVKYYDFNDGYYNYHYMDVWGKGTKVTVSS
VL: QSALTQPASVSGSPGQTITISCNGTSRDVGGFDSVSWYQQSPGKAPKVMVFDVSHRPSGMSNRFSGSKSGNTASLTISGLHIEDEGDYFCSSLTDRSHRIFGGGTKLTVLG
As to B3, the IC50, pseudovirus neutralization (TZM-bl) in [9] is less than 0.01 µg/mL; in test [10], less than 0.01 µg/mL; in test [11], 3.05 µg/mL; in test [12], 10.6 µg/mL; in [14] it was less than 0.01 µg/mL; in test [15], 0.36 µg/mL. In addition, the IC50, pseudovirus neutralization (TZM-bl) in test [18] was more than 25 µg/mL; in test [21] it was less than 0.01 µg/mL; in test [24], less than 0.01 µg/mL; in test [25], 10.4 µg/mL; in test [26], less than 0.01 µg/mL; in test [27], 2.08 µg/mL. This molecule came in with an IC50, pseudovirus neutralization (TZM-bl) in test [28] of less than 0.01 µg/mL. For the same molecule, the IC50 (ug/ml), neutralization in test [13] was more than 1 µg/mL; in test [17], more than 1 µg/mL; in test [19], 0.003 µg/mL; in test [20], 0.05 µg/mL; in [22], 0.001 µg/mL; in test [23], 0.005 µg/mL. The molecule also displayed an IC50, pseudovirus neutralization (TZM-bl), control virus in [16] of more than 25 µg/mL.

B4: PGT-126 monoclonal antibody (antibody, V domains shown)
VH: QPQLQESGPGLVEASETLSLTCTVSGDSTAACDYFWGWVRQPPGKGLEWIGGLSHCAGYYNTGWTYHNPSLKSRLTISLDTPKNQVFLKLNSVTAADTAIYYCARFDGEVLVYHDWPKPAWVDLWGRGTLVTVSS
VL: QSALTQPPSASGSPGQSISISCTGTSNRFVSWYQQHPGKAPKLVIYGVNKRPSGVPDRFSGSKSGNTASLTVSGLQTDDEAVYYCSSLVGNWDVIFGGGTKLTVL
B4: the IC50, pseudovirus neutralization in [1] is more than 10 µg/mL; in [2] it was 0.115 µg/mL; in [3], 0.0181 µg/mL; in test [4] it was more than 10 µg/mL; in test [5], 0.0093 µg/mL; in test [6] it was 0.0639 µg/mL. Also, the IC50, pseudovirus neutralization is 1.35 µg/mL in test [7] and more than 10 µg/mL in [8].

B5: PGT-135 monoclonal antibody (antibody, V domains shown)
VH: QLQMQESGPGLVKPSETLSLSCTVSGDSIRGGEWGDKDYHWGWVRHSAGKGLEWIGSIHWRGTTHYKESLRRRVSMSIDTSRNWFSLRLASVTAADTAVYFCARHRHHDVFMLVPIAGWFDVWGPGVQVTVSS
VL: EIVMTQSPDTLSVSPGETVTLSCRASQNINKNLAWYQYKPGQSPRLVIFETYSKIAAFPARFVASGSGTEFTLTINNMQSEDVAVYYCQQYEEWPRTFGQGTKVDIK
As to B5, the IC50, pseudovirus neutralization in test [1] was more than 10 µg/mL; in test [2], more than 10 µg/mL; in test [3] it was more than 10 µg/mL; in test [4], more than 10 µg/mL; in test [5] it was 0.0433 µg/mL; in [6], more than 10 µg/mL. For the same molecule, the IC50, pseudovirus neutralization in [7] was more than 10 µg/mL; in [8], 0.0139 µg/mL.

B6: PGT-136 monoclonal antibody (antibody, V domains shown)
VH: QLQLQESGPGLVKPSETLSLTCTVSGGSMRGTDWGENDFHYGWIRQSSAKGLEWIGSIHWRGRTTHYKTSFRSRATLSIDTSNNRFSLTFSFVTAADTAVYYCARHKYHDIFRVVPVAGWFDPWGQGLLVTVSS
VL: EIVMTQSPPTLSVSPGETATLSCRASQNVKNNLAWYQLKPGQAPRLLIFDASSRAGGIPDRFSGSGYGTDFTLTVNSVQSEDFGDYFCQQYEEWPRTFGQGTKVDIK
Take B6: the IC50, pseudovirus neutralization in [1], in test [2], in test [3], in test [4], in test [5] and in test [6] was more than 10 µg/mL throughout. In addition, the IC50, pseudovirus neutralization in [7] was more than 10 µg/mL; in test [8], 0.0915 µg/mL.

B7: PGT-130 monoclonal antibody (antibody, V domains shown)
VH: QVQLQESGPGLVKPAETLSLTCSVSGESINTGHYYWGWVRQVPGKGLEWIGHIHYTTAVLHNPSLKSRLTIKIYTLRNQITLRLSNVTAADTAVYHCVRSGGDILYYYEWQKPHWFSPWGPGIHVTVSS
VL: QSALTQPPSASGSLGQSVTISCNGTSSDIGGWNFVSWYQQFPGRAPRLIIFEVNKRPSGVPGRFSGSKSGNSASLTVSGLQSDDEGQYFCSSLFGRWDVVFGGGTKLTVL
On to B7, for which the IC50, pseudovirus neutralization was more than 10 µg/mL in test [1]; 0.0082 µg/mL in [2]; 0.474 µg/mL in [3]; more than 10 µg/mL in [4]; 0.0378 µg/mL in test [5]; more than 10 µg/mL in test [6]. Also, the IC50, pseudovirus neutralization in test [7] is 0.947 µg/mL; in test [8] it was more than 10 µg/mL.

B8: PGT-123 monoclonal antibody (antibody, V domains shown)
VH: QLHLQESGPGLVKPPETLSLTCSVSGASINDAYWSWIRQSPGKRPEWVGYVHHSGDTNYNPSLKRRVTFSLDTAKNEVSLKLVDLTAADSATYFCARALHGKRIYGIVALGELFTYFYMDVWGKGTAVTVSS
VL: SSMSVSPGETAKISCGKESIGSRAVQWYQQKPGQPPSLIIYNNQDRPAGVPERFSASPDFRPGTTATLTITNVDAEDEADYYCHIYDARGGTNWVFDRGTTLTVL
In the case of B8, the IC50, pseudovirus neutralization in test [1] was more than 10 µg/mL; in test [2], more than 10 µg/mL; in [3] it was 2.49 µg/mL; in [4], more than 10 µg/mL; in test [5], 0.0047 µg/mL; in test [6], 0.215 µg/mL. Moreover, the IC50, pseudovirus neutralization was 0.104 µg/mL in test [7] and more than 10 µg/mL in test [8].
